Tests used:
Assay in all cases: cell-based or functional assay
[1] = target: TSHR with Arg109 mutated to Ala, expressed in CHO cells (human) (UniProt P16473)
[2] = target: TSHR with Lys183 mutated to Ala expressed in CHO cells (human) (UniProt P16473)
[3] = target: TSHR with Lys58 mutated to Ala expressed in CHO cells (human) (UniProt P16473)
[4] = target: TSHR with Lys129 mutated to Ala, expressed in CHO cells (human) (UniProt P16473)
[5] = target: TSHR with Thr104 mutated to Ala (expressed in CHO cells) (human) (UniProt P16473)
[6] = target: wild type TSHR expressed in CHO cells (human) (UniProt P16473)

- % inhibition of TSH stimulation; TSH (2) control; Experiment 1 [1]: 0%
- % inhibition of TSH stimulation; TSH (2) control; Experiment 2 [1]: 6%
- Cyclic AMP produced; TSH 3 ng/mL; Experiment 1 [1]: 32.9 pmol/mL
- Cyclic AMP produced; TSH 3 ng/mL; Experiment 2 [1]: 53.4 pmol/mL
- Cyclic AMP produced; TSH (2); Experiment 1 [1]: 33.3 pmol/mL
- Cyclic AMP produced; TSH (2); Experiment 2 [1]: 50.4 pmol/mL
- Mutated/wild type (%) of cyclic AMP produced; TSH 3 ng/mL; Experiment 1 [1]: 49%
- Mutated/wild type (%) of cyclic AMP produced; TSH 3 ng/mL; Experiment 2 [1]: 88%
- Mutated/wild type (%) of cyclic AMP produced; TSH (2); Experiment 1 [1]: 49%
- Mutated/wild type (%) of cyclic AMP produced; TSH (2); Experiment 2 [1]: 74%
- Cyclic AMP produced (pmol/mL), 0.01 ng/mL TSH, Experiment 1 [2]: 4.95 pmol/mL
- Cyclic AMP produced (pmol/mL), 0.01 ng/mL TSH, Experiment 2 [2]: 3.73 pmol/mL
- Cyclic AMP produced (pmol/mL), 0.03 ng/mL TSH, Experiment 1 [2]: 6.94 pmol/mL
- Cyclic AMP produced (pmol/mL), 0.03 ng/mL TSH, Experiment 2 [2]: 5.37 pmol/mL
- Cyclic AMP produced (pmol/mL), 0.1 ng/mL TSH, Experiment 1 [2]: 13 pmol/mL
- Cyclic AMP produced (pmol/mL), 0.1 ng/mL TSH, Experiment 2 [2]: 10.1 pmol/mL
- Cyclic AMP produced (pmol/mL), 0.3 ng/mL TSH, Experiment 1 [2]: 35 pmol/mL
- Cyclic AMP produced (pmol/mL), 0.3 ng/mL TSH, Experiment 2 [2]: 27.8 pmol/mL
- Cyclic AMP produced (pmol/mL), 1 ng/mL TSH, Experiment 1 [2]: 57.2 pmol/mL
- Cyclic AMP produced (pmol/mL), 1 ng/mL TSH, Experiment 2 [2]: 55.8 pmol/mL
- Cyclic AMP produced (pmol/mL), 3 ng/mL TSH, Experiment 1 [2]: 69.2 pmol/mL
- Cyclic AMP produced (pmol/mL), 3 ng/mL TSH, Experiment 2 [2]: 72.2 pmol/mL
- Mutated/Wild type (%) of cyclic AMP produced, 0.01 ng/mL TSH, Experiment 1 [2]: 275%
- Mutated/Wild type (%) of cyclic AMP produced, 0.01 ng/mL TSH, Experiment 2 [2]: 287%
- Mutated/Wild type (%) of cyclic AMP produced, 0.03 ng/mL TSH, Experiment 1 [2]: 177%
- Mutated/Wild type (%) of cyclic AMP produced, 0.03 ng/mL TSH, Experiment 2 [2]: 179%
- Mutated/Wild type (%) of cyclic AMP produced, 0.1 ng/mL TSH, Experiment 1 [2]: 146%
- Mutated/Wild type (%) of cyclic AMP produced, 0.1 ng/mL TSH, Experiment 2 [2]: 151%
- Mutated/Wild type (%) of cyclic AMP produced, 0.3 ng/mL TSH, Experiment 1 [2]: 106%
- Mutated/Wild type (%) of cyclic AMP produced, 0.3 ng/mL TSH, Experiment 2 [2]: 106%
- Mutated/Wild type (%) of cyclic AMP produced, 1 ng/mL TSH, Experiment 1 [2]: 75%
- Mutated/Wild type (%) of cyclic AMP produced, 1 ng/mL TSH, Experiment 2 [2]: 82%
- Mutated/Wild type (%) of cyclic AMP produced, 3 ng/mL TSH, Experiment 1 [2]: 80%
- Mutated/Wild type (%) of cyclic AMP produced, 3 ng/mL TSH, Experiment 2 [2]: 103%
- % inhibition of TSH stimulation; TSH (2); Experiment 1 [3]: 0%
- % inhibition of TSH stimulation; TSH (2); Experiment 2 [3]: 1%
- Cyclic AMP produced; TSH 3 ng/mL; Experiment 1 [3]: 78.5 pmol/mL
- Cyclic AMP produced; TSH 3 ng/mL; Experiment 2 [3]: 96.8 pmol/mL
- Cyclic AMP produced; TSH (2); Experiment 1 [3]: 85.2 pmol/mL
- Cyclic AMP produced; TSH (2); Experiment 2 [3]: 95.8 pmol/mL
- Mutated/wild type (%) of cyclic AMP produced; TSH 3 ng/mL; Experiment 1 [3]: 114%
- Mutated/wild type (%) of cyclic AMP produced; TSH 3 ng/mL; Experiment 2 [3]: 99%
- Mutated/wild type (%) of cyclic AMP produced; TSH (2); Experiment 1 [3]: 115%
- Mutated/wild type (%) of cyclic AMP produced; TSH (2); Experiment 2 [3]: 94%
- % inhibition of TSH stimulation; TSH (2) control [4]: 3%
- Cyclic AMP produced; TSH 3 ng/mL [4]: 49.2 pmol/mL
- Cyclic AMP produced; TSH (2) [4]: 47.9 pmol/mL
- Mutated/wild type (%) of cyclic AMP produced; TSH 3 ng/mL [4]: 98%
- Mutated/wild type (%) of cyclic AMP produced; TSH (2) [4]: 90%
- % inhibition of TSH stimulation; TSH (2), run at the end of assay [5]: 10%
- Cyclic AMP produced (pmol/mL), TSH 0.01 ng/mL, Experiment 1 [5]: 2.58 pmol/mL
- Cyclic AMP produced (pmol/mL), TSH 0.01 ng/mL, Experiment 2 [5]: 4.28 pmol/mL
- Cyclic AMP produced (pmol/mL), TSH 0.03 ng/mL, Experiment 1 [5]: 3.2 pmol/mL
- Cyclic AMP produced (pmol/mL), TSH 0.03 ng/mL, Experiment 2 [5]: 5.71 pmol/mL
- Cyclic AMP produced (pmol/mL), TSH 0.1 ng/mL, Experiment 1 [5]: 3.64 pmol/mL
- Cyclic AMP produced (pmol/mL), TSH 0.1 ng/mL, Experiment 2 [5]: 9.8 pmol/mL
- Cyclic AMP produced (pmol/mL), TSH 0.3 ng/mL, Experiment 1 [5]: 5.38 pmol/mL
- Cyclic AMP produced (pmol/mL), TSH 0.3 ng/mL, Experiment 2 [5]: 35.7 pmol/mL
- Cyclic AMP produced (pmol/mL), TSH 1 ng/mL, Experiment 1 [5]: 15.8 pmol/mL
- Cyclic AMP produced (pmol/mL), TSH 1 ng/mL, Experiment 2 [5]: 57.1 pmol/mL
- Cyclic AMP produced (pmol/mL), TSH 3 ng/mL, Experiment 1 [5]: 34.5 pmol/mL
- Cyclic AMP produced (pmol/mL), TSH 3 ng/mL, Experiment 2 [5]: 58.5 pmol/mL
- Cyclic AMP produced; TSH 3 ng/mL alone [5]: 63.7 pmol/mL
- Cyclic AMP produced; TSH (2) 3 ng/mL, run at the end of assay [5]: 57 pmol/mL
- Mutated/Wild type (%), TSH 0.01 ng/mL, Experiment 1 [5]: 188%
- Mutated/Wild type (%), TSH 0.01 ng/mL, Experiment 2 [5]: 204%
- Mutated/Wild type (%), TSH 0.03 ng/mL, Experiment 1 [5]: 203%
- Mutated/Wild type (%), TSH 0.03 ng/mL, Experiment 2 [5]: 127%
- Mutated/Wild type (%), TSH 0.1 ng/mL, Experiment 1 [5]: 199%
- Mutated/Wild type (%), TSH 0.1 ng/mL, Experiment 2 [5]: 95%
- Mutated/Wild type (%), TSH 0.3 ng/mL, Experiment 1 [5]: 168%
- Mutated/Wild type (%), TSH 0.3 ng/mL, Experiment 2 [5]: 100%
- Mutated/Wild type (%), TSH 1 ng/mL, Experiment 1 [5]: 99%
- Mutated/Wild type (%), TSH 1 ng/mL, Experiment 2 [5]: 79%
- Mutated/Wild type (%), TSH 3 ng/mL, Experiment 1 [5]: 72%
- Mutated/Wild type (%), TSH 3 ng/mL, Experiment 2 [5]: 74%
- Mutated/wild type (%) of cyclic AMP produced; TSH 3 ng/mL alone [5]: 76%
- Mutated/wild type (%) of cyclic AMP produced; TSH (2) 3 ng/mL, run at the end of assay [5]: 68%
- % inhibition of TSH stimulation, wild type TSHR; TSH (2) (run at the end of assay) [6]: 0%
- % inhibition of TSH stimulation; TSH (2) [6]: 0%
- % inhibition of TSH stimulation; TSH (2) (run at the end of assay, against the first TSH sample); Experiment 1 [6]: 0%
- % inhibition of TSH stimulation; TSH (2) (run at the end of assay, against the first TSH sample); Experiment 2 [6]: 0%
- % inhibition of TSH stimulation; TSH (2), run at the end of assay [6]: 0.2%
- % inhibition of TSH stimulation; TSH (2); Experiment 1 [6]: 0%
- % inhibition of TSH stimulation; TSH (2); Experiment 2 [6]: 0%
- Cyclic AMP produced (pmol/mL), 0.01 ng/mL TSH [6]: 2.29 pmol/mL
- Cyclic AMP produced (pmol/mL), 0.01 ng/mL TSH, Experiment 1 [6]: 1.8 pmol/mL
- Cyclic AMP produced (pmol/mL), 0.01 ng/mL TSH, Experiment 2 [6]: 1.3 pmol/mL
- Cyclic AMP produced (pmol/mL), 0.03 ng/mL TSH [6]: 3.56 pmol/mL
- Cyclic AMP produced (pmol/mL), 0.03 ng/mL TSH, Experiment 1 [6]: 3.91 pmol/mL
- Cyclic AMP produced (pmol/mL), 0.03 ng/mL TSH, Experiment 2 [6]: 3 pmol/mL
- Cyclic AMP produced (pmol/mL), 0.1 ng/mL TSH [6]: 8.45 pmol/mL
- Cyclic AMP produced (pmol/mL), 0.1 ng/mL TSH, Experiment 1 [6]: 8.92 pmol/mL
- Cyclic AMP produced (pmol/mL), 0.1 ng/mL TSH, Experiment 2 [6]: 6.69 pmol/mL
- Cyclic AMP produced (pmol/mL), 0.3 ng/mL TSH [6]: 26.3 pmol/mL
- Cyclic AMP produced (pmol/mL), 0.3 ng/mL TSH, Experiment 1 [6]: 33 pmol/mL
- Cyclic AMP produced (pmol/mL), 0.3 ng/mL TSH, Experiment 2 [6]: 26.2 pmol/mL
- Cyclic AMP produced (pmol/mL), 1 ng/mL TSH [6]: 65.7 pmol/mL
- Cyclic AMP produced (pmol/mL), 1 ng/mL TSH, Experiment 1 [6]: 76.1 pmol/mL
- Cyclic AMP produced (pmol/mL), 1 ng/mL TSH, Experiment 2 [6]: 68.1 pmol/mL
- Cyclic AMP produced (pmol/mL), 3 ng/mL TSH [6]: 77.1 pmol/mL
- Cyclic AMP produced (pmol/mL), 3 ng/mL TSH, Experiment 1 [6]: 86.2 pmol/mL
- Cyclic AMP produced (pmol/mL), 3 ng/mL TSH, Experiment 2 [6]: 69.8 pmol/mL
Substance: TSH (ligand)
